According to the supplement of paper PMC9170038:

Test system: MS2 coat protein
Assay: apparent KD of MS2 coat protein; designed switch direction (-1 OFF switch, 1 ON switch): -1; higher = weaker reporter binding
Outline: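 The buffer was Tris-HCl pH 7.5 with KCl, MgCl2, BSA, DTT, tRNA and Tween-20. In it, SNAP-549-labelled MS2 coat protein was titrated in doubling steps from 0.7 or 1.5 nM to 3 µM over chip-bound RNA switches transcribed by stalled E. coli RNA polymerase on Illumina chips. Apparent KD is the per-design median over clusters of curve fits to normalised fluorescence.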

[1] = Eterna round: R95, input ligand: FMN 200 uM
[2] = Eterna round: R95, input ligand: microRNA oligo, concentration not stated
[3] = Eterna round: R95, input ligand: none
[4] = input ligand: microRNA oligo, concentration not stated

Sequence	apparent KD of MS2 coat protein [1] [nM]	apparent KD of MS2 coat protein [2] [nM]	apparent KD of MS2 coat protein [3] [nM]	apparent KD of MS2 coat protein (input ligand: FMN 200 uM) [nM]	apparent KD of MS2 coat protein [4] [nM]	apparent KD of MS2 coat protein (input ligand: none) [nM]
GGUUGGCGAGGAUAUACAUGAGGAUCACCCAUGUGAGAGAAUAAAGUGAGAAAGAAAAGUAGAAGGCGCUGACG [Mat - Exclusion 3 - Mod of Salish D49] (puzzle: Exclusion 3)	728	56.9	43.3			
AAGAAACAUGAGGAUCACCCAUGUGAGGAUAUGAGAAAGAAAAGAAAAGAAAGAAGAAUCAGAAGGCACAAAGG [salish99-ex1_r3_032] (puzzle: Exclusion 1)	117	77.7	116			
CCGCUCCGUGUAGGAUAUUGGCGUGCCCUGCGCCGAGAAGGACAUGAGGAUCACCCAUGUAUGUUAUUAUCACGCGUGGCGCAU [Design 77] (Eterna round: R96, puzzle: Exclusion NG 1)				32.2	16.7	22
AGUAACCGUCACGAAAGUGAUGGUUACACAAGCAAAUGUACAUGAGGAUCACCCAUGUCCUCAUUUGUUCGUCUUAU [Sensor 3 - 47] (Eterna round: R96, puzzle: Sensor v3, turn-off variant 2)				101	305	104
UGGUAACAUGAGGAUCACCCAUGUCAGGAUAUCAGUAAGAAUAGAUUAGAGUAGAAGAUGAGAAGGGACUAUAU [Excluse me! 6 - Jieux - Exclusion 1] (puzzle: Exclusion 1)		33.8				
CUCUCGCGAGGAUAUGAUUUAAGUAACAUGAGGAUCACCCAUGUUUUUCCGUUGUUAUGUUCAGAAGGCGCGUGAU [JR_E5_Sub022] (puzzle: Exclusion 5)		38.8				
CUUUUGUGAGGAUAUCAGUAGUAUAAAAAUAAAAUUACUACUGAGAAGGCACAUGAGGAUCACCCAUGUUCCUC [salish99_ex4_r3_017] (puzzle: Exclusion 4)		37.4				
AAUACCCUGUUAGGAUAUAAUACCGAAGGAGUAUUAGAAGGGACAGUAAGGUACAUGAGGAUCACCCAUGUGAGAAUCUGUGCC [Edanxeve] (Eterna round: R96, puzzle: Exclusion NG 1)				107	65.3	75.4
UUGAUGUGAGGAUAUAUUUUUUUUUUUCUUUAUGUUUUAUAACUUGAGGAUCACCCAAGUAGAAGGCGCUACGU [JR_Ex2_Sub064] (Eterna round: R97, puzzle: Exclusion 2)				51.7		30.5
CGGGUGAUAGGAUAUGACCAAGGUGACAUGAGGAUCACCCAUGUGAUCGUCGUAGACCUGUCAGAAGGGUUCCCGA [Bivevebe] (Eterna round: R97, puzzle: Exclusion 5)				78.7		34.9
AGAUGUACCUAGGAUAUCCGUCUUAUUGGACUAGGAGAAGGAGGUACAUGAGGAUCACCCAUGUAUGACUCCUG [Veisteer] (puzzle: Exclusion 6)		9.08				
GUCACUAGAGGAUAUACAAUGGUAUAUGAUCCUAGAGACAAACAUGAGGAUCACCCAUGUAGAAGGCUAGUAAU [Exclusion 2 - 3] (puzzle: Exclusion 2)	23.8	178	123			
UGGGUUCUCCAUAGAAGUAACAUGAGGAUCACCCAUGUAGGGCAAGUUUUUUGCUCGUCAUAGGUUGAGGGAUUGGA [JR_SV3TOV1_Sub017] (puzzle: Sensor v3, turn-off variant 1)	968	441	634			
UAUUUAAUUAACAAGCUUUACAUGAGGAUCACCCAUGUGAUCAUGCUCGUCUUAGGUACAGGCUUCGGCCUGUACCA [Stov1/6-B2] (Eterna round: R97, puzzle: Sensor, turn-off variant 1)				51.8		55.9
AGCUGUGGCCGAGGAUAUCCACAUGAGGAUCACCCAUGUCGAUACCAGCGUAAGCUGGAUAUAAGGGAGAAGGCGGUCUCAGCA [Eli eng2 - 053] (Eterna round: R96, puzzle: Exclusion NG 2)				6.2	6.51	10.5
UGCCGUUUAGGAUAUACAUGAGGAUCACCCAUGUGACACACAUAUUUUACAAAACCAUGUAGAAGGAAACGGCA [E3-1.0] (Eterna round: R96, puzzle: Exclusion 3)				542	95.4	114
CUAGCGGGUGUAGGAUAUCGGACUGUUUCAGUCUGAGAAGGACAUGAGGAUCACCCAUGUAUUGCUGCGUGAGUAGCACGCUAG [JL ENG1 3.98] (Eterna round: R96, puzzle: Exclusion NG 1)				46.8	23.4	34.1
GUAGUGACUCGAGGAUAUCCCGACUCCUGGUCAGGAGAAGGCGACGUCAUAGCACAUGAGGAUCACCCAUGUCUUACACAUACG [Eternabot solution 32] (Eterna round: R96, puzzle: Exclusion NG 1)				25.6	19.5	23.9

Sequence	apparent KD of MS2 coat protein [1] [nM]	apparent KD of MS2 coat protein [2] [nM]	apparent KD of MS2 coat protein [3] [nM]	apparent KD of MS2 coat protein (input ligand: FMN 200 uM) [nM]	apparent KD of MS2 coat protein [4] [nM]	apparent KD of MS2 coat protein (input ligand: none) [nM]
AUAAUGUGAGGAUAUCAGUCGACUAGCCUCGGCUAGUCGACUGAGAAGGUACAUGAGGAUCACCCAUGUAGAUC [E4/20-A2] (Eterna round: R97, puzzle: Exclusion 4)				84.3		26.4
UGAUCACAUGAGGAUCACCCAUGUCAGGAUAUCUACAUUGAAGCUUCGGCUUCAAUGUAGAGAAGGGAUAUAAU [E1/5-B1] (Eterna round: R97, puzzle: Exclusion 1)				203		82.8
GUCAGACGAGGAUAUGAUGUCAAAGACAUGAGGAUCACCCAUGUGAUCAAUUAAUUAAGAUCAGAAGGCGUCUGAC [E5/2-A3] (Eterna round: R97, puzzle: Exclusion 5)				172		222
GCACGGUAAGUGAGGAUAUACCUCUGGAUACAGAGGUAGAAGGCACAUGAGGAUCACCCAUGUCCAAGCCGUGC [Fiskers BMX 4 - 84] (puzzle: Brourd's mod of Exclusion 4)		22.8				
AAGAAACAUGAGGAUCACCCAUGUGAGGAUAUGUAAAAGAAAAGAAAAUAAAGAAGAAACAGAAGGCACAAAGG [Mat - Mod of Hog D21] (Eterna round: R96, puzzle: Exclusion 1)					30.9	
CGGUGCUGAGGAUAUACAUGAGGAUCACCCAUGUGUGCCAGCUAGCUGACUGGCACUUGUAGAAGGCAGUACUG [JL-ex3-2.13 Brourd mod] (puzzle: Exclusion 3)		12.4				
UAUUUCAUCUAUGGGAGUAACAUGAGGAUCACCCAUGUAUGUCUUGUUUUUUGUUCGUCUAAGACUUUCUGAUCAGU [JR_SV3TOV1_Sub031] (puzzle: Sensor v3, turn-off variant 1)	34.2	45.5	35.4			
CCUCCACAUGAGGAUCACCCAUGUCAGGAUAUCGUGCGCGCGUUUUCGGUCUUUCGCGCGAGAAGGGACGACUG (puzzle: Exclusion 1)		24.1				
UAAUUGAUUAAUAGAUUAUACAUGAGGAUCACCCAUGUAGGUCCUACGUGCCAUUUAAGCAGCUCGUCUUAUUCCCA [Sensor-V1 #68] (Eterna round: R97, puzzle: Sensor, turn-off variant 1)				41.8		49
AUGGGUACUUUCGGAGCGACAUGAGGAUCACCCAUGUAUGUUGAGGAUAUCCACUGCUAAGGACGGGAGAAGGCAGUGUACUGU [Ex NG3 #83] (Eterna round: R96, puzzle: Exclusion NG 3)				26.1	16	26.4
UUCCUCACUUCUUUGACUCACAUGAGGAUCACCCAUGUAAUAUAGGAUAUGCAUUUUAUUUCUUUGCAGAAGGAUAUUAGUUUU [JR_ExcNG3_Sub088] (Eterna round: R96, puzzle: Exclusion NG 3)					34.7	
UUUAGUUCAGGAUAUGAUGAAUUAAACAUGAGGAUCACCCAUGUAGAUCCUGAAUUAACAUCAGAAGGGAAUAUUU [JL-ex5-4.47 Brourd mod] (Eterna round: R97, puzzle: Exclusion 5)				15.1		13.7
GUUGCUACUGAGGAUAUUAUACUACCCGACUGAUAAGAAGGCAGUACAUGAGGAUCACCCAUGUGGGUAGCCAC [Polaris13] (Eterna round: R97, puzzle: Exclusion 6)				25.5		21.7
CUUUUGUGAGGAUAUCAGUAGUAAAAUAAUAAAUAUACUACUGAGAAGGCACAUGAGGAUCACCCAUGUUCCUC [Mat - Exclusion 4 - Mod of Salish - D74] (puzzle: Exclusion 4)		35				
UCAUGUUUAGAGGAUAUGAUUACUUUGGAGUAAUCAGAAGGCUAGACAUGAGGAUCACCCAUGUCAUAACAUGA [Exclusion 6 - B - 15:c] (puzzle: Exclusion 6)	75.5	71.5	61.3			
GAUUAUGCGAGCUUUAGGGACAUGAGGAUCACCCAUGUUCGUCUUAUUGAUCUAGGUACACUAACAUACCUAAAUCU [JMF 17] (puzzle: Sensor v3, turn-off variant 1)	19.8	38.1	23.1			
UAAUAUAGAGGAUAUACAUGAGGAUCACCCAUGUGAGUCCAUUAUGGGAUGAGAUCGGGUAGAAGGCUACGAAU [Eternabot (L2) Solution 28] (Eterna round: R97, puzzle: Exclusion 3)				143		57.7
AACAUGUCAGGAUAUAUGACAUGGCUCUUCGGAGCAAGCUCAUAGAAGGGACAUGAGGAUCACCCAUGUAGAGC [Ex4-3: 21] (puzzle: Exclusion 4)		21.7				
